Results on two substances are retold here after publication doi:10.1101/2020.08.09.229716.

The experiment concerns the target Gβγ subunits (fluorescent-tagged, of the FRET Gαi activity reporter) (UniProt P62873). Description: FRET or BRET. In general terms: In BRET a luciferase serves as donor, and the signal depends on an acceptor being close.

As for “Gαi1-WT activity reporter (fluorescent-tagged Gαi) (from UniProt P63096 1-354) (natural protein)”, the loss of FRET signal after EGF stimulation turned out to be 50%.
Turning to “Gαi1-Y154H activity reporter (from UniProt P63096 1-354) (natural protein)”, the reduction in FRET signal compared to WT and 3YF amounted to 80%.
